Assays:
c-Src SH2 = assay: SH2 binding enrichment of the phosphorylated peptide, bacterial display (enrichment ratio); higher = better substrate or ligand; peptides without Tyr show the background
Grb2 SH2 = Grb2 SH2 (UniProt P62993); assay: as above
SHP2-C SH2 = assay: as above
Jak2 = Jak2 (UniProt O60674); assay: phosphorylation enrichment, bacterial display (enrichment ratio); higher = better substrate or ligand; peptides without Tyr show the background
Fer (mouse) = assay: as above
Hck = Hck (UniProt P08631); assay: as above
FGFR1 = FGFR1 (UniProt P11362); assay: as above
Chain of FGFR1 (P11362 whole entry, looked up): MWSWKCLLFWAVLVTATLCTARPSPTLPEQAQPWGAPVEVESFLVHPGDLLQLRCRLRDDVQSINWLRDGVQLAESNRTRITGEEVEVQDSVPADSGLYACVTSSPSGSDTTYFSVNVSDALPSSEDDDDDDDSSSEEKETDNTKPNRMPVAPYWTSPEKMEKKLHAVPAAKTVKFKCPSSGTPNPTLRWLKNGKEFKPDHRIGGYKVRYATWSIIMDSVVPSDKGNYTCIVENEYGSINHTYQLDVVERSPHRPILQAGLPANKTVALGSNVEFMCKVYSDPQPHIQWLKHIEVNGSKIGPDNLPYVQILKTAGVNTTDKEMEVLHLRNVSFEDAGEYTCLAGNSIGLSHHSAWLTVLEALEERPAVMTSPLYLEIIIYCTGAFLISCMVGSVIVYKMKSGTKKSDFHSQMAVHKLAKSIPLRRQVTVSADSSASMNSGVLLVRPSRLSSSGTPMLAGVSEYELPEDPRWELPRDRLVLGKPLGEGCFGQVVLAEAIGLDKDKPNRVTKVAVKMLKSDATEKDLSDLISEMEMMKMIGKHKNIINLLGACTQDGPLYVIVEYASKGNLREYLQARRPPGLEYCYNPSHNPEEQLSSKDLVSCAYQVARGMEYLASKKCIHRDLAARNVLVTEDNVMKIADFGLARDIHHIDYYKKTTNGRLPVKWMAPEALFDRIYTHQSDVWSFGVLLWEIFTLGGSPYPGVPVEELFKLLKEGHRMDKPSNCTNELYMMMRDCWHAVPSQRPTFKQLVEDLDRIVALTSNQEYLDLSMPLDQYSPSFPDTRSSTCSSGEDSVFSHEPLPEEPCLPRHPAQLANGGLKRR

Fyn = Fyn (UniProt P06241); assay: as above
c-Abl (mouse) = assay: as above
FGFR3 = FGFR3 (UniProt P22607); assay: as above
c-Src = assay: as above
AncSZ = assay: as above
MERTK = MERTK (UniProt Q12866); assay: as above
Chain of MERTK (Q12866 whole entry, looked up): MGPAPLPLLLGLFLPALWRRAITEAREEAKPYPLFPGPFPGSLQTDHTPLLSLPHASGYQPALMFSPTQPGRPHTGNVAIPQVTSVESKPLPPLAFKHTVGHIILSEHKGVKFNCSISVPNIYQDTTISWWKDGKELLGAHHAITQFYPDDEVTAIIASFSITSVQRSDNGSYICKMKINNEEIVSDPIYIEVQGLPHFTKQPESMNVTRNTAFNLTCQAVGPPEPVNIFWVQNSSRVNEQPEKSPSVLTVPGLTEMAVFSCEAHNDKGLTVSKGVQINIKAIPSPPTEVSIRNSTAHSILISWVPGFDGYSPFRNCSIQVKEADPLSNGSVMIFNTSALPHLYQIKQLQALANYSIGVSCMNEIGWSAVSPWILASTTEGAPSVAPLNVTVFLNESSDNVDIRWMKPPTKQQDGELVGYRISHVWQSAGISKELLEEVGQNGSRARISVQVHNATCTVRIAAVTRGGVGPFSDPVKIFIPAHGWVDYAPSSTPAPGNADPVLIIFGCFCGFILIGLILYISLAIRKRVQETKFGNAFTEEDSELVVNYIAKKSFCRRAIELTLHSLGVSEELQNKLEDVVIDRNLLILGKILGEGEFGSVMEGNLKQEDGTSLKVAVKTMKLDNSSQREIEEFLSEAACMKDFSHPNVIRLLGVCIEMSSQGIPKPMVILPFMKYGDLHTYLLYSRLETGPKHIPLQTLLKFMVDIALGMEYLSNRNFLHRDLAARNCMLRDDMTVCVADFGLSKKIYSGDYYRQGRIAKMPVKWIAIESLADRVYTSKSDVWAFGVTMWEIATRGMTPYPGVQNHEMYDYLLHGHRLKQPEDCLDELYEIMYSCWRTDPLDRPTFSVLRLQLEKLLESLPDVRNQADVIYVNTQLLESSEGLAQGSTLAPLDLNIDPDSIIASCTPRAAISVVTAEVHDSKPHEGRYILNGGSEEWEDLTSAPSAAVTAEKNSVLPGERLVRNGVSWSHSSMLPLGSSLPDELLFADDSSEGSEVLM

Fes = Fes (UniProt P07332); assay: as above
Chain of Fes (P07332 whole entry, looked up): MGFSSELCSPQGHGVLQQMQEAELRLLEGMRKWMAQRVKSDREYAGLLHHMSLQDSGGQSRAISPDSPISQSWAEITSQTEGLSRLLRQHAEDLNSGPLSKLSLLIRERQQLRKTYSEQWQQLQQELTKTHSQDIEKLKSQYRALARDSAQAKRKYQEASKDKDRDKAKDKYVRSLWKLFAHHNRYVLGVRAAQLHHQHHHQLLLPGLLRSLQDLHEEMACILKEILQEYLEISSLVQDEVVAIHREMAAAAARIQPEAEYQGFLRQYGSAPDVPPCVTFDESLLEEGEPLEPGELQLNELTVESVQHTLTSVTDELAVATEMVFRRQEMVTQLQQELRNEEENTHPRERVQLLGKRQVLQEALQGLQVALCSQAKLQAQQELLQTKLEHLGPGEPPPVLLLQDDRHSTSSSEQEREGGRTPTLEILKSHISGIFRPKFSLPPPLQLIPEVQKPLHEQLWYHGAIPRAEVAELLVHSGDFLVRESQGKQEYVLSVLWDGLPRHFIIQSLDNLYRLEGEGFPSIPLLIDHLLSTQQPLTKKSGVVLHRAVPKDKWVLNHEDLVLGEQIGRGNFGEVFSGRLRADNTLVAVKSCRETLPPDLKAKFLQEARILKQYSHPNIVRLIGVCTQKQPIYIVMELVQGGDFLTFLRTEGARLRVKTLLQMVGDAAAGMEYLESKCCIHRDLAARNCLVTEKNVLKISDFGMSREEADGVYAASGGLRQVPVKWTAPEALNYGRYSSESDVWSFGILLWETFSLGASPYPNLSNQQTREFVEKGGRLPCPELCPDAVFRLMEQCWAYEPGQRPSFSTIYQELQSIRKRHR

EPHB2 = EPHB2 (UniProt P29323); assay: as above
EPHB1 = EPHB1 (UniProt P54762); assay: as above
Chain of EPHB1 (P54762 whole entry, looked up, the tested form may be a part): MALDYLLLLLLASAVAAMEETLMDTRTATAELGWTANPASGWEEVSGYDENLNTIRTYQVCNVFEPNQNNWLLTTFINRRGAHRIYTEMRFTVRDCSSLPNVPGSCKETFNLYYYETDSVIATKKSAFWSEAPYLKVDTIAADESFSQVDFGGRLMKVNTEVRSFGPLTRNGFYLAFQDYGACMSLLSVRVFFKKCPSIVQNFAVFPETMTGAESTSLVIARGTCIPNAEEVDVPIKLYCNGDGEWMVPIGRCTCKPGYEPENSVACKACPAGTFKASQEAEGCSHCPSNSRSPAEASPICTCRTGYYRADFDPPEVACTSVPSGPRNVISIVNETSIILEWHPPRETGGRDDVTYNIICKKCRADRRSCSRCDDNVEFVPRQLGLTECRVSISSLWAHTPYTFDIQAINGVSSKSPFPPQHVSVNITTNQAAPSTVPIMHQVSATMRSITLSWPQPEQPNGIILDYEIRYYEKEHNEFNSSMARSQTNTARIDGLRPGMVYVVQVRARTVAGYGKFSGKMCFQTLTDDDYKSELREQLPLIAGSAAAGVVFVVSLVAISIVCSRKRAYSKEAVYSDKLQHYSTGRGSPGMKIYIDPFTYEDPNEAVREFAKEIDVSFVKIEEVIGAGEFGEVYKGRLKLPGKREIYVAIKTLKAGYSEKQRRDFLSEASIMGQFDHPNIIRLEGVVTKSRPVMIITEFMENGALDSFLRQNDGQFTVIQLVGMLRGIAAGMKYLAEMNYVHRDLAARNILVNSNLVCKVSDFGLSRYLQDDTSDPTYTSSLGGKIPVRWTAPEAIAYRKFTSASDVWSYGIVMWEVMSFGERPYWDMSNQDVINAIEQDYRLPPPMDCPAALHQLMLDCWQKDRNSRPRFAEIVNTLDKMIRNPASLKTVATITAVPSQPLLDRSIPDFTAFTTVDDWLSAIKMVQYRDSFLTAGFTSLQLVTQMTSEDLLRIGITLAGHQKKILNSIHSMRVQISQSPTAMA
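For SH2 binding enrichment of the phosphorylated peptide, bacterial display in this document: peptide library displayed on the E. coli surface as eCPX fusions, selected cells deep-sequenced, score is each peptide's frequency after selection divided by its frequency in the input.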
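For phosphorylation enrichment, bacterial display in this document: 11-residue human phosphosite peptides and single-mutation variants displayed on the E. coli surface, counted by deep sequencing, each peptide's frequency after selection divided by its frequency in the unselected input library; frequency after pTyr selection over input frequency; kinase dosed for 20-30% of maximal phosphorylation in three min.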

Chain of Jak2 (O60674 whole entry, looked up): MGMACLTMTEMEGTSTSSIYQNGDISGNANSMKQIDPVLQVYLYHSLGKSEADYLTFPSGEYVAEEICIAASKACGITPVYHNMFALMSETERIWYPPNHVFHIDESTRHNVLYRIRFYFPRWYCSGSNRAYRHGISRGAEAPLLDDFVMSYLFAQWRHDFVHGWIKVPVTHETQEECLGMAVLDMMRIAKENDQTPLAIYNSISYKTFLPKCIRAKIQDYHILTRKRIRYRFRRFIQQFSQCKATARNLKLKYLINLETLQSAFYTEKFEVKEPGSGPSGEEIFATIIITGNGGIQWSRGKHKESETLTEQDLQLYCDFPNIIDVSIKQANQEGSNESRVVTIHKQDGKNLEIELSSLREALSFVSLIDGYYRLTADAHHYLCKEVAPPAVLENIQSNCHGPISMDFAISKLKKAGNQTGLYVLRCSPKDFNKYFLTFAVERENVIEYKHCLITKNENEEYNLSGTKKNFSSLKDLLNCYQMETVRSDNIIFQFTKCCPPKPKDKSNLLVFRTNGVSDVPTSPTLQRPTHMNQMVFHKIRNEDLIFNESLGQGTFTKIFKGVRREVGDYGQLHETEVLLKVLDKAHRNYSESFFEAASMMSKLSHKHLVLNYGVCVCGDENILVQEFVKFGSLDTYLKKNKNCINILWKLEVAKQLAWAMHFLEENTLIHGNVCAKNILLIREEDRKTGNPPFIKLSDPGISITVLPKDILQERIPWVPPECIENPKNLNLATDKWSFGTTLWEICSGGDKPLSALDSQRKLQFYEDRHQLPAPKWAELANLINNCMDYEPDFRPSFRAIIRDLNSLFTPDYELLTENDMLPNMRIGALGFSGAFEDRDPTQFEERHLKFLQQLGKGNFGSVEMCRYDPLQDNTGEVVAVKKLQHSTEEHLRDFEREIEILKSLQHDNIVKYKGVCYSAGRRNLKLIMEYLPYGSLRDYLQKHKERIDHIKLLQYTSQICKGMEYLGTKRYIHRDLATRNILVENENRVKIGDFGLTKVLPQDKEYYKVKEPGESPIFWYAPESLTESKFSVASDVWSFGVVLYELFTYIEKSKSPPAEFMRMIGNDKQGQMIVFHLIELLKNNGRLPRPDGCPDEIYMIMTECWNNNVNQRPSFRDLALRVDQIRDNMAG

SH2 binding enrichment (c-Src SH2) | SH2 binding enrichment (Grb2 SH2) | SH2 binding enrichment (SHP2-C SH2) | Sequence | phosphorylation enrichment (Jak2) | phosphorylation enrichment (Fer (mouse)) | phosphorylation enrichment (Hck) | phosphorylation enrichment (FGFR1) | phosphorylation enrichment (Fyn) | phosphorylation enrichment (c-Abl (mouse)) | phosphorylation enrichment (FGFR3) | phosphorylation enrichment (c-Src) | phosphorylation enrichment (AncSZ) | phosphorylation enrichment (MERTK) | phosphorylation enrichment (Fes) | phosphorylation enrichment (EPHB2) | phosphorylation enrichment (EPHB1)
0.484 | 0.848 | 0.74 | IIGNGYFFHVF [MYBPC3_Y1135_R1138H_YF] | 1.07 | 0.398 | 0.314 | 0.4 | 0.313 | 0.776 | 0.699 | 0.34 | 1.11 | 0.254 | 1.09 | 0.547 | 0.569
0.685 | 0.893 | 1 | GKSFIYAAFHA [KCNT1_Y563_T562I] | 1.32 | 0.672 | 2.83 | 0.452 | 4.67 | 2.75 | 0.805 | 3.84 | 1.18 | 1.72 | 1.25 | 0.522 | 0.787
0.796 | 1.34 | 0.891 | RHPYFYAPELL [ALB_Y174] | 1.13 | 0.476 | 0.474 | 12.7 | 0.517 | 0.694 | 10.8 | 0.776 | 1.38 | 0.622 | 1.19 | 0.762 | 0.564
0.68 | 1.05 | 0.926 | SISLRYEGRVF [ABL1_Y167_YF] | 0.918 | 0.686 | 0.507 | 0.524 | 0.438 | 0.696 | 0.838 | 0.372 | 1.25 | 0.384 | 1.26 | 0.703 | 0.636
0.47 | 0.796 | 0.592 | SDVCMYRKNTY [SYNE2_Y570_I574T] | 0.67 | 0.401 | 0.487 | 0.429 | 0.405 | 0.684 | 0.695 | 0.377 | 0.76 | 0.403 | 0.905 | 0.519 | 0.477
0.472 | 0.678 | 0.488 | YRQLQYCPSVE [CTNND2_Y508] | 0.857 | 0.637 | 0.606 | 0.545 | 0.538 | 0.861 | 0.928 | 0.476 | 1.11 | 0.483 | 1.31 | 0.591 | 0.661
0.448 | 0.768 | 0.629 | EVVGRYSGHNA [MLH1_Y183_V185G] | 0.397 | 0.397 | 0.403 | 0.405 | 0.414 | 0.368 | 0.48 | 0.34 | 0.464 | 0.426 | 0.514 | 0.4 | 0.434
0.606 | 0.811 | 0.674 | GARGRYIMGGP [TNK1_Y277_V278I] | 0.531 | 0.4 | 0.428 | 0.789 | 0.433 | 0.512 | 0.4 | 0.522 | 0.433 | 0.468 | 0.547 | 0.462 | 0.39
0.719 | 1.01 | 0.944 | VTQEPYELFCE [CBL_Y368_Q367P_YF] | 0.998 | 1.15 | 0.569 | 0.649 | 0.793 | 0.817 | 0.938 | 1.19 | 1.58 | 0.592 | 1.32 | 0.687 | 0.74
0.44 | 0.937 | 0.968 | AIDDKYSRREE [SART1_Y685] | 0.794 | 0.434 | 0.465 | 0.488 | 0.51 | 0.471 | 0.578 | 0.426 | 0.806 | 0.439 | 0.939 | 0.511 | 0.431
0.335 | 0.671 | 0.499 | PTFKHYANSTQ [SLC12A3_Y70_E68K_YF] | 0.455 | 0.509 | 0.507 | 0.574 | 0.482 | 0.591 | 0.599 | 0.365 | 0.651 | 0.375 | 0.774 | 0.506 | 0.603
0.604 | 0.865 | 0.821 | RLEKEYFDQHF [NPC1_Y394] | 1.44 | 0.5 | 0.665 | 1.39 | 0.341 | 0.795 | 0.959 | 0.571 | 1.13 | 0.631 | 1.29 | 0.707 | 0.717
0.539 | 0.871 | 0.469 | MVTSGYKAKMI [EFR3A_Y447_T451M] | 0.695 | 0.393 | 0.39 | 0.384 | 0.355 | 0.552 | 0.389 | 0.435 | 0.563 | 0.414 | 0.589 | 0.528 | 0.401
0.48 | 0.756 | 0.634 | SMAKYYASEIA [ACADSB_Y373] | 0.599 | 0.495 | 0.473 | 0.426 | 0.404 | 0.682 | 0.478 | 0.452 | 0.601 | 0.46 | 0.701 | 0.433 | 0.459
0.447 | 0.851 | 0.825 | TDKLFYIFTSG [SLC27A4_Y243_YF] | 1.41 | 0.472 | 0.524 | 0.686 | 0.506 | 0.766 | 0.886 | 0.469 | 1.6 | 0.538 | 1.44 | 0.701 | 0.732
